Assay results reported in patent US20190322750A1 (Y BIOLOGICS, published 2019).

Key:
[1] = biological target: T1, PD-L1 on CHO cell line highly expressing PD-L1 (PD-1/PD-L1 blockade bioassay kit, promega J1250) (UniProt Q9NZQ7 19-290, limits assumed); experiment: cell-based or functional assay
M1 = experiment: ELISA on coated antigen, column M1
Experimental: (§1) An antigen PD-L1 wild type (WT) or several mutants were coated at a density of 100 ng/well on a 96-well immunoplate at 4° C. for 16 hours and the wells were blocked with 4% skim milk dissolved in PBS. Each well was washed with 0.2 ml of PBS/T, and then a single clone scFv-phage (each […]) cultured for 16 hours was added in a dose of 100 μl to each well and reacted at room temperature for 2 hours. Again, each well was washed 4 times with 0.2 ml of PBS/T, and then the second antibody, anti-Fab, was diluted to 1/2000 and reacted at room temperature for 1 hour. After washing with 0.2 ml of PBS/T, color development was performed and absorbance was measured at 490 nm.

M2 = experiment: ELISA on coated antigen, column M2
Experimental: as §1

M3 = experiment: ELISA on coated antigen, column M3
M4 = experiment: ELISA on coated antigen, column M4
Experimental: as §1

M5 = experiment: ELISA on coated antigen, column M5
Experimental: as §1

M6 = experiment: ELISA on coated antigen, column M6
Experimental: as §1

M7 = experiment: ELISA on coated antigen, column M7
M8 = experiment: ELISA on coated antigen, column M8
Experimental: as §1

WT = biological target: T2, WT (human, UniProt Q9NZQ7); experiment: ELISA on coated antigen, column WT
T2 construct: recombinant; also called hPD-L1; antigen PD-L1 wild type (WT)
Experimental: as §1

ITGA6 = biological target: T3, ITGA6; experiment: ELISA on coated antigen, column ITGA6
T3 construct: unrelated antigen column; all antibodies give 0.5 to 0.6
T3 sequence (P23229 whole entry, species assumed, looked up): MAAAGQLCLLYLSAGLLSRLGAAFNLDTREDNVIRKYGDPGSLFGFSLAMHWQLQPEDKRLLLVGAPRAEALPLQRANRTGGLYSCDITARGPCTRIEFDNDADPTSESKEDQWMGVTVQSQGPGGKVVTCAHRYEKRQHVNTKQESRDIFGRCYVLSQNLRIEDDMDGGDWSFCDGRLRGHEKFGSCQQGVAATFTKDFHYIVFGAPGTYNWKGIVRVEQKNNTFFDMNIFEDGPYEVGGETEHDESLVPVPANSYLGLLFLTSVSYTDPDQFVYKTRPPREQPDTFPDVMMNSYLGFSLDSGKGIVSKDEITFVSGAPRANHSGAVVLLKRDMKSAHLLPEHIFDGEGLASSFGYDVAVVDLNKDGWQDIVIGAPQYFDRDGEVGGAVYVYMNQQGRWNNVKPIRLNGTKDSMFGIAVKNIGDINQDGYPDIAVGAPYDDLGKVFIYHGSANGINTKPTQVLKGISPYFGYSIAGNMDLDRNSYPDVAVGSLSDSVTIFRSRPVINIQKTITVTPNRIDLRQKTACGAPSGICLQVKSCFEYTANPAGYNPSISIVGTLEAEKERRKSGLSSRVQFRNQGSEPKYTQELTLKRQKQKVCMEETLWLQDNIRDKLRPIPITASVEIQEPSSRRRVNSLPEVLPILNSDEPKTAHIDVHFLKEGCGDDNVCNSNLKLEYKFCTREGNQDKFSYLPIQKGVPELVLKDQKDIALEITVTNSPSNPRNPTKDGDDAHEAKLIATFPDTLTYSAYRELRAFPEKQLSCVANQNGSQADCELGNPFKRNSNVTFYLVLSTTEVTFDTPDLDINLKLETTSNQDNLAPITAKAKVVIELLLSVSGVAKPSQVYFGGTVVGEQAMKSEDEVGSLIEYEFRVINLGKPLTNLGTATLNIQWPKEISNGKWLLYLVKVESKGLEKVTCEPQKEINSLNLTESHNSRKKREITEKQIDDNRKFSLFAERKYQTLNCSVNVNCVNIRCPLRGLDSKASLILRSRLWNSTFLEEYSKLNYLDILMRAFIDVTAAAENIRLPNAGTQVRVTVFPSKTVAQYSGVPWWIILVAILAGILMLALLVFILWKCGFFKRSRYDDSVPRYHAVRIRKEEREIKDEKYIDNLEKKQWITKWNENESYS

PD-L1-hFc [2] = biological target: T4, PD-L1-hFc (human, UniProt Q9NZQ7 19-238); experiment: SPR (ProteOn XPR36), PD-L1-hFc immobilised on GLC chip, antibody 30 nM to 0.123 nM as analyte
T4 construct: extracellular domain; Made in HEK-293F cells, protein A purified; also called PD-L1 antigen; PD-L1 protein
Experimental: (§2) A ProteOn XPR36 (BioRad) instrument was used. The GLC sensor chip (BioRad) was mounted on the instrument and washed with PBST buffer, and the carboxymethyldextran surface was activated with an EDC/sulfo-NHS mixed solution. PD-L1-hFc dissolved at a concentration of 5 ug/ml in a 10 mM sodium acetate buffer solution (pH 5.0) was injected and immobilized on the GLC sensor chip.
(§3) In order to deactivate the activated carboxyl groups that remain unreacted with the PD-L1 protein, 1 M ethanolamine was flowed and 10 mM glycine (pH 2.0) was injected in order to wash proteins that remain unbound to the sensor chip.
The equilibrium dissociation constant (KD) was calculated by plotting and fitting the sensogram data in the equilibrium state depending on concentration.

[3] = biological target: T5, human PD-L1 over-expressed on HEK293E cells (human, UniProt Q9NZQ7 19-290); experiment: flow cytometry (Geometric Mean) on HEK293E cells over-expressing human PD-L1, serial dilution
T5 construct: whole, on cells; also called human PD-L1 (NM_014143.2)
Experimental: Then, the cells were washed three times with PBS (#LB001-02, Welgene) containing 2% fetal bovine serum and reacted at 4° C. for 20 minutes with an anti-human IgG antibody (#FI-3000, Vectorlabs) conjugated with a FITC (fluorescein isothiocyanate) fluorescent substance. Then, the cells were subjected to the same washing process as above and then suspended in 0.5 ml of PBS containing 2% FBS (#26140-079, Thermo Fisher) with an FACSCanto II flow cytometer (BD Biosciences, USA) as a flow cytometer.

PD-L1-hFc [4] = biological target: T4, PD-L1-hFc; experiment: kinetics on PD-L1-hFc (legend paragraph 40; text names ProteOn XPR36, the sheet's sensorgrams have a nm axis)
[5] = biological target: T1, PD-L1 on CHO cell line highly …; experiment: cell-based or functional assay; remark: listed apart in the source
PD-L2-Fc = biological target: T6, PD-L2-Fc (human, UniProt Q9BQ51); experiment: ELISA on coated PD-L2-Fc (2.5 and 5 ug/well), OD450nm
T6 construct: recombinant Fc fusion; also called human PD-L2-Fc (#10292-H02H, Sino)
T6 sequence (ligand-Fc, looked up): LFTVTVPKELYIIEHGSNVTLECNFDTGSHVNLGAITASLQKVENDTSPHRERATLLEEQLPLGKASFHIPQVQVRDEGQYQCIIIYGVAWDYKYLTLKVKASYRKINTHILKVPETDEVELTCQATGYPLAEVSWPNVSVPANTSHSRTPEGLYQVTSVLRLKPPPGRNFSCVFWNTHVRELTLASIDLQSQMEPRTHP

PD-L1-His = biological target: T7, PD-L1-His (human, UniProt Q9NZQ7); experiment: competition ELISA: PD-L1-His pre-incubated with the antibody, then on coated PD-1-Fc (blocked ligand); % of max absorbance
T7 construct: recombinant, His-tagged; also called human PD-L1-His (S1479, Y-Biologics)

[6] = biological target: T1, PD-L1 on CHO cell line highly …; experiment: cell-based or functional assay; remark: listed apart in the source
mouse PD-L1 protein = mouse PD-L1 protein (mouse, UniProt Q9EP73 19-238, limits assumed); experiment: SPR (ProteOn XPR36); format of the mouse protein not stated
cynomolgus PD-L1 protein = biological target: T8, cynomolgus PD-L1 protein (cynomolgus, UniProt G7PSE7 19-239); experiment: SPR (ProteOn XPR36); format of the cynomolgus protein not stated; cynomolgus PD-L1
T8 construct: also called monkey PD-L1

PD-L1-hFc [7] = biological target: T4, PD-L1-hFc; experiment: SPR (ProteOn XPR36), PD-L1-hFc immobilised on GLC chip, antibody as analyte; human PD-L1
Experimental: as §2, §3

[8] = biological target: T5, human PD-L1 over-expressed on HEK293E …; experiment: flow cytometry on HEK293E/PD-L1 cells, FITC anti-human IgG, serial dilutions; fit table

T4 sequence (Q9NZQ7 other isoform, or with tags, fused parts or gaps limits assumed): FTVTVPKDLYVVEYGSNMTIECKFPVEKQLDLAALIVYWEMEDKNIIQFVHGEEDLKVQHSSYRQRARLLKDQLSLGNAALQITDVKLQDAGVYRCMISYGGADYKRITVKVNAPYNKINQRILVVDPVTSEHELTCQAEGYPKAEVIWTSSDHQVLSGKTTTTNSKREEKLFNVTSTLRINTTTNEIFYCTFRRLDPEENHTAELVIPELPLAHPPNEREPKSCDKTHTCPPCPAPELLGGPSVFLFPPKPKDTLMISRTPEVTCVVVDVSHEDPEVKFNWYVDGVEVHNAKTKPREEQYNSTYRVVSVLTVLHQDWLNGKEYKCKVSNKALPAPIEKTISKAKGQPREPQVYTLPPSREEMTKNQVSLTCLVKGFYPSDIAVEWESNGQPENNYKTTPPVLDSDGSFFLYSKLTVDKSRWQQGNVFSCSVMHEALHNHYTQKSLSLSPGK
Chain of mouse PD-L1 protein (Q9EP73 19-238 limits assumed): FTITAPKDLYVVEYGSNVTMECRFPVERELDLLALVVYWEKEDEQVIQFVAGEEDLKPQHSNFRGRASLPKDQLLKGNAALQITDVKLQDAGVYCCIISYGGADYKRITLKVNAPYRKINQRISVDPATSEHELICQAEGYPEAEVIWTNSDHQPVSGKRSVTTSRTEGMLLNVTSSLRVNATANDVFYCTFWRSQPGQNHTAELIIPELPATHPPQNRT
T5 sequence (Q9NZQ7 19-290): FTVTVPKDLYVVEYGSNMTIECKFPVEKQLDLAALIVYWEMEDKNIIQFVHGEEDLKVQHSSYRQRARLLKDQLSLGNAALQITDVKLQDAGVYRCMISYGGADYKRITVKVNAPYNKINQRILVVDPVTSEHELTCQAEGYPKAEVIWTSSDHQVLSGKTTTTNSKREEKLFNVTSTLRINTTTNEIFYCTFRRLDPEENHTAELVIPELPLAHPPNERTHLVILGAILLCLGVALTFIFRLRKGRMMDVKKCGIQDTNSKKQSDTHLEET
T1 sequence (Q9NZQ7 19-290 limits assumed): as the sequence (Q9NZQ7 19-290) above
T8 sequence (G7PSE7 entry or part of it): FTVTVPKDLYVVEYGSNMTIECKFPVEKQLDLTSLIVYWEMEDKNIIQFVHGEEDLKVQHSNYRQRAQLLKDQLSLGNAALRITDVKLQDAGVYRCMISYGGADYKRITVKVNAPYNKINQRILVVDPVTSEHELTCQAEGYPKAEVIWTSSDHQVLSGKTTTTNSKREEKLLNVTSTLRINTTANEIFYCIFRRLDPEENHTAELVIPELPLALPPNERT
T7 sequence (Q9NZQ7 19-238 limits assumed): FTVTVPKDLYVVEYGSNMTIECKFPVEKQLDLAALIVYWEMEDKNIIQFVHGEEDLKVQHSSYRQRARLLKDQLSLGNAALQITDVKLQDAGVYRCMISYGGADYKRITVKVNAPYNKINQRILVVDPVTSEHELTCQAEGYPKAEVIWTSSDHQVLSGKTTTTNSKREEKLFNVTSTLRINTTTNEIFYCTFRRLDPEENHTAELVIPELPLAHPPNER
T2 sequence (Q9NZQ7 19-238 limits assumed): as above

B1: PDL1-16E12 (antibody, V domains shown)
VH: QMQLVQSGAEVKKPGSSVKVSCKASGGTFSSYAISWVRQAPGQGLEWMGRIIPILGIANYAQKFQGRVTITADKSTSTAYMELSSLRSEDTAVYYCAKPRDGYNLVAFDIWGQGTMVTVSS
VL: QLVLTQPPSVSGAPGQTVTISCTGSSSNIGAGYDVHWYQQLPGTAPKLLIYGNNNRPSGVPDRFSGSKSGALASLAITGLQAEDGADYHCQSYDNSLSAHAVFGTGTKVTVL
notes: Only FR/CDR pieces are tied to the clone; also called parent antibody
[1]
  EC50: 0.909 nM
M1
  absorbance at 490 nm: 2.4
M2
  absorbance at 490 nm: 2.3
M3
  absorbance at 490 nm: 0.9
M4
  absorbance at 490 nm: 0.4
M5
  absorbance at 490 nm: 2.4
M6
  absorbance at 490 nm: 2.5
M7
  absorbance at 490 nm: 2.5
M8
  absorbance at 490 nm: 2.6
WT
  absorbance at 490 nm: 2.5
ITGA6
  absorbance at 490 nm: 0.5
PD-L1-hFc [2]
  Kd: 0.045 nM
[3]
  EC50: 1.72 nM
PD-L1-hFc [4]
  Kd: 0.043 nM
  koff: 1.43e-05 s⁻¹
  kon: 334000 M⁻¹ s⁻¹

B2: PD-L1-16E12-LS-4F5 (Kappa) (antibody, V domains shown)
VH: B1 VH
VL: QLVLTQPPSVSGAPGQRVTISCTGSSSNIGAGYDVHWYQQLPGAAPKLLIYGDINRPSGVPDRFSGSKSGISASLAITGLQAEDEADYYCQSYDSSLSGGVFGGGTKLTVL
[5]
  Average *EC50 [nM], PD-1/PD-L1 blockade bioassay: 0.25 nM
PD-L2-Fc
  binding result: no binding (tested: 1.0 ug/ml)
PD-L1-His
  IC50: 7.66 nM

B3: PDL1-16E12 (LS/4F5) (antibody, V domains shown)
VH: B1 VH
VL: B2 VL
notes: also called 16E12(4F5); 16E12-4F5
[6]
  EC50 (first run): 0.3 nM
  EC50 (second run): 0.21 nM
Mouse PD-L1 protein
  Kd: 0.808 nM
  koff: 0.000673 s⁻¹
  kon: 833000 M⁻¹ s⁻¹
Cynomolgus PD-L1 protein
  Kd: < 0.035 nM
  koff: < 1e-05 s⁻¹
  kon: 287000 M⁻¹ s⁻¹
PD-L1-hFc [7]
  Kd: < 0.032 nM
  koff: < 1e-05 s⁻¹
  kon: 310000 M⁻¹ s⁻¹
[8]
  Bmax: 4100
  Kd: 1.46 nM
PD-L1-hFc [4]
  Kd: 0.00853 nM
  koff: 2.18e-06 s⁻¹
  kon: 256000 M⁻¹ s⁻¹
